IntAct's records for PubMed 16511572

B1: 14-3-3 protein gamma (Homo sapiens), P61981 (parent)
chain: MVDREQLVQKARLAEQAERYDDMAAAMKNVTELNEPLSNEERNLLSVAYKNVVGARRSSWRVISSIEQKTSADGNEKKIEMVRAYREKIEKELEAVCQDVLSLLDNYLIKNCSETQYESKVFYLKMKGDYYRYLAEVATGEKRATVVESSEKAYSEAHEISKEHMQPTHPIRLGLALNYSVFYYEIQNAPEQACHLAKTAFDDAIAELDTLNEDSYKDSTLIMQLLRDNLTLWTSDQQDDDGGEGNN
partner: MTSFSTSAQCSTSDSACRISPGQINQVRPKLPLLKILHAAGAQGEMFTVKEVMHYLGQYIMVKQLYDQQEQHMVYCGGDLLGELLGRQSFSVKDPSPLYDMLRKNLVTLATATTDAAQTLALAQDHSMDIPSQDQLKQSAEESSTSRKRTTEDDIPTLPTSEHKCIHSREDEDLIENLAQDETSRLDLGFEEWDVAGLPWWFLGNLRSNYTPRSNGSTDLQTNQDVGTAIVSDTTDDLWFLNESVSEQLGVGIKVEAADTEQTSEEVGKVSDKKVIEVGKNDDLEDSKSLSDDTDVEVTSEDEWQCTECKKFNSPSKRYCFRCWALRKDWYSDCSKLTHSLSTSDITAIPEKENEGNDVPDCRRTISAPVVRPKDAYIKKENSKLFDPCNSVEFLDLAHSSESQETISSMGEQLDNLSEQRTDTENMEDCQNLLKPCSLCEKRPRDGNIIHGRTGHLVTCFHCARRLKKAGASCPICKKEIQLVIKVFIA
B2: Protein Mdm4 (Homo sapiens), O15151 (parent)
chain: B1 partner
partner: B1 chain

Variants of: B1
Settings: with mdm4_human MDM4, O15151

Row | effect of a mutation on the interaction | Variant
1 | disrupting interaction | K50E

Variants of: B2
Settings: with 1433g_human YWHAG

Row | effect of a mutation on the interaction | Variant
2 | disrupting interaction | P369G
3 | disrupting interaction | S367G
